# Results published in IntAct's records for PubMed 29892012.
# B1: Glutaredoxin-3 (Homo sapiens), O76003 (parent)
# chain: MAAGAAEAAVAAVEEVGSAGQFEELLRLKAKSLLVVHFWAPWAPQCAQMNEVMAELAKELPQVSFVKLEAEGVPEVSEKYEISSVPTFLFFKNSQKIDRLDGAHAPELTKKVQRHASSGSFLPSANEHLKEDLNLRLKKLTHAAPCMLFMKGTPQEPRCGFSKQMVEILHKHNIQFSSFDIFSDEEVRQGLKAYSSWPTYPQLYVSGELIGGLDIIKELEASEELDTICPKAPKLEERLKVLTNKASVMLFMKGNKQEAKCGFSKQILEILNSTGVEYETFDILEDEEVRQGLKAYSNWPTYPQLYVKGELVGGLDIVKELKENGELLPILRGEN
# partner: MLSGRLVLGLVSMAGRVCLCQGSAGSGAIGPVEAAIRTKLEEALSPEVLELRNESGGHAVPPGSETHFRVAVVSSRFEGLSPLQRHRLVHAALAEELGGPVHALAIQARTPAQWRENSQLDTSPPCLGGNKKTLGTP
# B2: TBC1 domain family member 22B (Homo sapiens), Q9NU19 (parent)
# chain: MAAENSKQFWKRSAKLPGSIQPVYGAQHPPLDPRLTKNFIKERSKVNTVPLKNKKASSFHEFARNTSDAWDIGDDEEEDFSSPSFQTLNSKVALATAAQVLENHSKLRVKPERSQSTTSDVPANYKVIKSSSDAQLSRNSSDTCLRNPLHKQQSLPLRPIIPLVARISDQNASGAPPMTVREKTRLEKFRQLLSSQNTDLDELRKCSWPGVPREVRPITWRLLSGYLPANTERRKLTLQRKREEYFGFIEQYYDSRNEEHHQDTYRQIHIDIPRTNPLIPLFQQPLVQEIFERILFIWAIRHPASGYVQGINDLVTPFFVVFLSEYVEEDVENFDVTNLSQDMLRSIEADSFWCMSKLLDGIQDNYTFAQPGIQKKVKALEELVSRIDEQVHNHFRRYEVEYLQFAFRWMNNLLMRELPLRCTIRLWDTYQSEPEGFSHFHLYVCAAFLIKWRKEILDEEDFQGLLMLLQNLPTIHWGNEEIGLLLAEAYRLKYMFADAPNHYRR
# partner: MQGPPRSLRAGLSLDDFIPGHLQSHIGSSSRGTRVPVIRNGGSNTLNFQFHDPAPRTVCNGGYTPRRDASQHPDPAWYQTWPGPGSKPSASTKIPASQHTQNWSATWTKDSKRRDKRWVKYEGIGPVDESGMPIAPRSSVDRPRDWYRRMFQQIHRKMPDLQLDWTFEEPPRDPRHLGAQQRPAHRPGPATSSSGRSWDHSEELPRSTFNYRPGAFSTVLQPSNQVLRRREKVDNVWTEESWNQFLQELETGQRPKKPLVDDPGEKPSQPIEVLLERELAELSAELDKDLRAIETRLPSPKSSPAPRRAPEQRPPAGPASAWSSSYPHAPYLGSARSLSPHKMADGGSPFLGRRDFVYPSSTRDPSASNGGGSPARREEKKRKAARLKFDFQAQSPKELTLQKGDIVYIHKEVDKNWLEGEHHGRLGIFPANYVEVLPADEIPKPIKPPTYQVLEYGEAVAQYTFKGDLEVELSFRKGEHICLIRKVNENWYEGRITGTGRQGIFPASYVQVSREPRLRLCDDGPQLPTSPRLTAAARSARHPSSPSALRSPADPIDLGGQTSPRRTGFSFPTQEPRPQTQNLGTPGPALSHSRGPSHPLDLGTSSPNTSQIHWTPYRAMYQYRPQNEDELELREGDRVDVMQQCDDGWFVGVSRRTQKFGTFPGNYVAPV
# B3: Islet cell autoantigen 1 (Homo sapiens), Q05084 (parent)
# chain: MSGHKCSYPWDLQDRYAQDKSVVNKMQQKYWETKQAFIKATGKKEDEHVVASDADLDAKLELFHSIQRTCLDLSKAIVLYQKRICFLSQEENELGKFLRSQGFQDKTRAGKMMQATGKALCFSSQQRLALRNPLCRFHQEVETFRHRAISDTWLTVNRMEQCRTEYRGALLWMKDVSQELDPDLYKQMEKFRKVQTQVRLAKKNFDKLKMDVCQKVDLLGASRCNLLSHMLATYQTTLLHFWEKTSHTMAAIHESFKGYQPYEFTTLKSLQDPMKKLVEKEEKKKINQQESTDAAVQEPSQLISLEEENQRKESSSFKTEDGKSILSALDKGSTHTACSGPIDELLDMKSEEGACLGPVAGTPEPEGADKDDLLLLSEIFNASSLEEGEFSKEWAAVFGDGQVKEPVPTMALGEPDPKAQTGSGFLPSQLLDQNMKDLQASLQEPAKAASDLTAWFSLFADLDPLSNPDAVGKTDKEHELLNA
# B4: Multifunctional procollagen lysine hydroxylase and glycosyltransferase LH3 (Homo sapiens), O60568 (parent)
# chain: MTSSGPGPRFLLLLPLLLPPAASASDRPRGRDPVNPEKLLVITVATAETEGYLRFLRSAEFFNYTVRTLGLGEEWRGGDVARTVGGGQKVRWLKKEMEKYADREDMIIMFVDSYDVILAGSPTELLKKFVQSGSRLLFSAESFCWPEWGLAEQYPEVGTGKRFLNSGGFIGFATTIHQIVRQWKYKDDDDDQLFYTRLYLDPGLREKLSLNLDHKSRIFQNLNGALDEVVLKFDRNRVRIRNVAYDTLPIVVHGNGPTKLQLNYLGNYVPNGWTPEGGCGFCNQDRRTLPGGQPPPRVFLAVFVEQPTPFLPRFLQRLLLLDYPPDRVTLFLHNNEVFHEPHIADSWPQLQDHFSAVKLVGPEEALSPGEARDMAMDLCRQDPECEFYFSLDADAVLTNLQTLRILIEENRKVIAPMLSRHGKLWSNFWGALSPDEYYARSEDYVELVQRKRVGVWNVPYISQAYVIRGDTLRMELPQRDVFSGSDTDPDMAFCKSFRDKGIFLHLSNQHEFGRLLATSRYDTEHLHPDLWQIFDNPVDWKEQYIHENYSRALEGEGIVEQPCPDVYWFPLLSEQMCDELVAEMEHYGQWSGGRHEDSRLAGGYENVPTVDIHMKQVGYEDQWLQLLRTYVGPMTESLFPGYHTKARAVMNFVVRYRPDEQPSLRPHHDSSTFTLNVALNHKGLDYEGGGCRFLRYDCVISSPRKGWALLHPGRLTHYHEGLPTTWGTRYIMVSFVDP
# partner: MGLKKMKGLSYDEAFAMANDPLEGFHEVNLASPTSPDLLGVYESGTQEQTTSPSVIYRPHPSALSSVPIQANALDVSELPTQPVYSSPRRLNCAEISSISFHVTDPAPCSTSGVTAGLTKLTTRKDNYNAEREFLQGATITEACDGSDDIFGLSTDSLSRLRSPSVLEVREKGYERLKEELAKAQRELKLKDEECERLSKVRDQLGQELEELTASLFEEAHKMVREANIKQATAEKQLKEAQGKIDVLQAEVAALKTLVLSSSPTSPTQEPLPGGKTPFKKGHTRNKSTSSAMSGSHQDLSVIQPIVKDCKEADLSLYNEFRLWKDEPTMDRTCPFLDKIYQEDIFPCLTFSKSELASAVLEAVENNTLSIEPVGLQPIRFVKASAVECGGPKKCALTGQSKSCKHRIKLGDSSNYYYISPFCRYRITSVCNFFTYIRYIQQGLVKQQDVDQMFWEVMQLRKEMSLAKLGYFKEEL
# B5: Coiled-coil domain-containing protein 120 (Homo sapiens), Q96HB5-4 (parent)
# chain: MRREPRYQGQVGPDIHTDSERTLSSHQPRPLDSTKMEVKGQLISSPTFNAPAALFGEAAPQVKSERLRGLLDRQRTLQEALSLKLQELRKVCLQEAELTGQLPPECPLEPGERPQLVRRRPPTARAYPPPHPNQAHHSLCPAEELALEALEREVSVQQQIAAAARRLALAPDLSTEQRRRRRQVQADALRRLHELEEQLRDVRARLGLPVLPLPQPLPLSTGSVITTQGVCLGMRLAQLSQEDVVLHSESSSLSESGASHDNEEPHGCFSLAERPSPPKAWDQLRAVSGGSPERRTPWKPPPSDLYGDLKSRRNSVASPTSPTRSLPRSASSFEGRSVPATPVLTRGAGPQLCKPEGLHSRQWSGSQDSQMGFPRADPASDRASLFVARTRRSNSSEALLVDRAAGGGAGSPPAPLAPSASGPPVCKSSEVLYERPQPTPAFSSRTAGPPDPPRAARPSSAAPASRGAPRLPPVCGDFLLDYSLDRGLPRSGGGTGWGELPPAAEVPGPLSRRDGLLTMLPGPPPVYAADSNSPLLRTKDPHTRATRTKPCGLPPEAAEGPEVHPNPLLWMPPPTRIPSAGERSGHKNLALEGLRDWYIRNSGLAAGPQRRPVLPSVGPPHPPFLHARCYEVGQALYGAPSQAPLPHSRSFTAPPVSGRYYADFLYPPELSARLSDLTLEGEQSSSSDTQTPGTLV
# partner: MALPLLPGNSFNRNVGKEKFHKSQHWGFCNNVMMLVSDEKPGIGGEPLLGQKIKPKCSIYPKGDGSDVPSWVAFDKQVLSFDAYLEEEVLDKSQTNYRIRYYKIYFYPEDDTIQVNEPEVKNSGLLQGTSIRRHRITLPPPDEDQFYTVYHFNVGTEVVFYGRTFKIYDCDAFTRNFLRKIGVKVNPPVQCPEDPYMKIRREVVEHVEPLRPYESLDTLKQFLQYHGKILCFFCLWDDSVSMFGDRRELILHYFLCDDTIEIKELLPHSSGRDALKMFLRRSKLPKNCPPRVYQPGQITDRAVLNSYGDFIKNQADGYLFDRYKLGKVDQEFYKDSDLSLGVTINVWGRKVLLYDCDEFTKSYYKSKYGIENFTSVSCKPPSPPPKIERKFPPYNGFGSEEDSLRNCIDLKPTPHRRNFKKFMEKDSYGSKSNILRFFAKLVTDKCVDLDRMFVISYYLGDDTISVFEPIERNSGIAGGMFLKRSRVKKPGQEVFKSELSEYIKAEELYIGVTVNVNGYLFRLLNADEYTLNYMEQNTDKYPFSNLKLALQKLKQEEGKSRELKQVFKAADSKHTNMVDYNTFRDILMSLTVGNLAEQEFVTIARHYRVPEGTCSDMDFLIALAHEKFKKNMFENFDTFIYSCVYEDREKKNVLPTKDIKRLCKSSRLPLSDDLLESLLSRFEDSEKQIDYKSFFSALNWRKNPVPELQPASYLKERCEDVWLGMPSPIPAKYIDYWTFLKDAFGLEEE
# Variants of: B1
# Settings: with bola1_human BOLA1, Q9Y3E2
row,effect of a mutation on the interaction,Variant
1,with no effect,P145A

# Variants of: B2
# Settings: with vinex_human SORBS3, O60504
row,effect of a mutation on the interaction,Variant
1,disrupting interaction strength,A349T

# Variants of: B3
# Settings: with rab2a_human RAB2A
row,effect of a mutation on the interaction,Variant
1,disrupting interaction strength,Q443R

# Variants of: B3
# Settings: with rab2b_human RAB2B
row,effect of a mutation on the interaction,Variant
1,disrupting interaction strength,Q443R

# Variants of: B4
# Settings: with rab3i_human RAB3IP
row,effect of a mutation on the interaction,Variant
1,with no effect,R235Q

# Variants of: B5
# Settings: with efhc2_human EFHC2, Q5JST6
row,effect of a mutation on the interaction,Variant
1,with no effect,R346W
